Reference: patent US8828401B2, “Cytotoxic peptides and antibody drug conjugates thereof” (Pfizer Inc., priority 2011, dated 2014)

Legend:
37622A1 NSCLC xenografts = assay: 37622A1 NSCLC patient-derived xenografts with anti-Notch ADCs; assay type: in vivo, nude (Nu/Nu) female mice; settings: 5 mg/kg Q4dx4
Procedure: (§1) Humanized anti-Notch antibodies, hu28 and hu75, and rat-human chimeric anti-Notch antibodies, ch28 and ch75, were conjugated to various linker-payload combinations and tested in 37622A1 non-small cell lung cancer (NSCLC), HCC2429 lung cancer, MDA-MB-468 breast cancer and N87 gastric cancer xenograft models. For each model described below the first dose was given on Day 0. The tumors were measured at least once a week and their volume was calculated with the formula: tumor volume (mm^3)=0.5×(tumor width^2)(tumor length). The mean tumor volumes (±S.E.M.) for each treatment group were calculated having a maximum of 10 animals and a minimum of 6 animals to be included.
The effects of anti-Notch ADCs were examined in immunodeficient mice on the in vivo growth of human tumor xenografts that were established from fragments of freshly resected 37622A1 NSCLC tumors obtained in accordance with appropriate consent procedures (Asterand). The 37622A1 NSCLC patient-derived xenografts were subcutaneously passaged in vivo as fragments from animal to animal in nude (Nu/Nu) female mice. When the tumors reached a volume of 150 to 300 mm^3, they were staged to ensure uniformity of the tumor size among various treatment groups. The 37622A1 NSCLC model was dosed intraveneously four times every four days (Q4dx4) with PBS vehicle, humanized anti-Notch ADCs, control huNeg-8.8 ADCs and cisplatin at the doses provided in Table 11.

N87 gastric xenografts = N87 gastric xenografts with anti-Notch ADCs; assay type: in vivo, nude (Nu/Nu) female mice; settings: Dose 5 mg/kg Q4dx4 iv
Procedure: as §1
Similar in vivo experiments were performed with the N87 gastric cancer cell line as described above. […] When the tumors reached a volume of 250 to 450 mm^3, the tumors were staged to ensure uniformity of the tumor mass among various treatment groups. The N87 gastric model was dosed intraveneously Q4dx4 with PBS vehicle, humanized anti-Notch ADCs, control huNeg-8.8 ADCs and cisplatin at the doses provided in Tables 16 and 17.

U2OS/hNotch = assay: In vitro cytotoxicity assay with anti-Notch ADCs (MTS); assay type: cell-based; settings: average of 2-4 repeats where ± S.E.M. is given
Procedure: (§2) The effects of anti-Notch ADCs were assessed on 1) cell lines endogenously expressing Notch protein: HCC2429 (lung cancer), OVCAR3 (ovarian cancer) and MDA-MB-468 (breast cancer), 2) cell lines engineered to over-express Notch protein: MDA-MB-468/hNotch and U2OS/hNotch, and 3) a negative control cell line (SW900) using an MTS cellular viability indicator (Promega, Madison, Wis.). These cell lines were cultured with increasing concentrations of anti-Notch ADCs comprising humanized anti-Notch antibodies, hu28 and hu75, and rat-human chimeric anti-Notch antibodies, ch28 and ch75, conjugated to various linker-payload combinations of the present invention. As a specificity control for the anti-Notch-ADCs, non-targeted control-ADCs (huNeg8.8-ADCs or ch2H6-ADCs) were also tested on the same cell lines. After four days, viability of each culture was assessed. IC50 values were calculated by logistic non-linear regression and presented as ng Ab/mL. The drug antibody ratio (DAR) is also provided.

HCC2429 (lung cancer) = assay: as above; assay type: cell-based; settings: average of 2-4 repeats where ± S.E.M. is given
Procedure: as §2

[1] = test system: MDA-MB-468 (breast cancer); assay: as above; assay type: cell-based; settings: average of 2-4 repeats where ± S.E.M. is given
Procedure: as §2

OVCAR3 (ovarian cancer) = assay: as above; assay type: cell-based; settings: average of 2-4 repeats where ± S.E.M. is given
Procedure: as §2

MDA-MB-468/hNotch = assay: as above; assay type: cell-based; settings: average of 2-4 repeats where ± S.E.M. is given
Procedure: as §2

`N.N.[Cl][Pt][Cl]` [Cisplatin, reference compound] was tested, and the “tumor volume (mm^3 ± SEM)” value (37622A1 NSCLC xenografts; DAY 4) was 226 ± 15 mm^3, the “tumor volume (mm^3 ± SEM)” value (37622A1 NSCLC xenografts; DAY 7) was 280 ± 29 mm^3 and the “tumor volume (mm^3 ± SEM)” value (37622A1 NSCLC xenografts; DAY 11) was 301 ± 34 mm^3. The “tumor volume (mm^3 ± SEM)” value (37622A1 NSCLC xenografts; DAY 14) was 345 ± 47 mm^3, the “tumor volume (mm^3 ± SEM)” value (37622A1 NSCLC xenografts; DAY 18) was 309 ± 37 mm^3 and the “tumor volume (mm^3 ± SEM)” value (37622A1 NSCLC xenografts; DAY 21) was 373 ± 50 mm^3. For the same molecule, the “tumor volume (mm^3 ± SEM)” value (37622A1 NSCLC xenografts; DAY 25) was 401 ± 58 mm^3, the “tumor volume (mm^3 ± SEM)” value (37622A1 NSCLC xenografts; DAY 28) was 446 ± 64 mm^3 and the “tumor volume (mm^3 ± SEM)” value (37622A1 NSCLC xenografts; DAY 32) was 482 ± 62 mm^3. The “tumor volume (mm^3 ± SEM)” value (37622A1 NSCLC xenografts; DAY 35) was 587 ± 80 mm^3, the “tumor volume (mm^3 ± SEM)” value (37622A1 NSCLC xenografts; DAY 39) was 591 ± 83 mm^3 and the “tumor volume (mm^3 ± SEM)” value (37622A1 NSCLC xenografts; DAY 42) was 612 ± 92 mm^3. For the same molecule, the “tumor volume (mm^3 ± SEM)” value (37622A1 NSCLC xenografts; DAY 46) was 723 ± 119 mm^3, the “tumor volume (mm^3 ± SEM)” value (37622A1 NSCLC xenografts; DAY 49) was 853 ± 139 mm^3 and the “tumor volume (mm^3 ± SEM)” value (37622A1 NSCLC xenografts; DAY 53) was 970 ± 193 mm^3. The “tumor volume (mm^3 ± SEM)” value (37622A1 NSCLC xenografts; DAY 56) was 1215 ± 231 mm^3, the “tumor volume (mm^3 ± SEM)” value (37622A1 NSCLC xenografts; DAY 60) was 1428 ± 273 mm^3 and the “tumor volume (mm^3 ± SEM)” value (37622A1 NSCLC xenografts; DAY −1) was 185 ± 11 mm^3. The “tumor volume (mm^3 ± SEM)” value (N87 gastric xenografts; DAY 0) was 328 ± 20 mm^3, the “tumor volume (mm^3 ± SEM)” value (N87 gastric xenografts; DAY 4) was 414 ± 27 mm^3 and the “tumor volume (mm^3 ± SEM)” value (N87 gastric xenografts; DAY 7) was 520 ± 26 mm^3. The “tumor volume (mm^3 ± SEM)” value (N87 gastric xenografts; DAY 11) was 501 ± 29 mm^3 and the “tumor volume (mm^3 ± SEM)” value (N87 gastric xenografts; DAY 14) was 637 ± 31 mm^3.

B1: ch75-mc0131 (conjugate)
VH: QVKLLQSGAALVKPGASVKMSCKASGYAFTDYWVTWVKQSHGKSLEWIGEISPNSGGTNFNEKFKGKATLTVDKSTSTAYMELSRLTSEDSAIYYCTRGEIRYNWFAYWGQGTLVTVSS
VL: DIQMTQSPSSLSASVGDRVTITCKASQNVGNNIAWYQQKPGKAPKLLIYYASNRYTGVPSRFSGSGYGTDFTLTISSLQPEDFATYYCQRLYNSPFTFGGGTKVEIK
B1 was tested, and the “IC50 (ng Ab/mL) ± S.E.M.” value (U2OS/hNotch) was 19 ng Ab/mL, the “IC50 (ng Ab/mL) ± S.E.M.” value (HCC2429 (lung cancer)) was 671 ± 406.5 ng Ab/mL and the “IC50 (ng Ab/mL) ± S.E.M.” value [1] was 8202 ± 2773.0 ng Ab/mL. The “IC50 (ng Ab/mL) ± S.E.M.” value (OVCAR3 (ovarian cancer)) was 289 ng Ab/mL.

B2: ch75-vc0101: rat-human chimeric anti-Notch antibody ch75 conjugated to mcValCitPABC-#54 (conjugate)
VH: QVKLLQSGAALVKPGASVKMSCKASGYAFTDYWVTWVKQSHGKSLEWIGEISPNSGGTNFNEKFKGKATLTVDKSTSTAYMELSRLTSEDSAIYYCTRGEIRYNWFAYWGQGTLVTVSS
VL: DIQMTQSPSSLSASVGDRVTITCKASQNVGNNIAWYQQKPGKAPKLLIYYASNRYTGVPSRFSGSGYGTDFTLTISSLQPEDFATYYCQRLYNSPFTFGGGTKVEIK
With B2 the “IC50 (ng Ab/mL) ± S.E.M.” value (HCC2429 (lung cancer)) was 2112 ± 826.0 ng Ab/mL, the “IC50 (ng Ab/mL) ± S.E.M.” value [1] was 4064 ± 1793.9 ng Ab/mL and the “IC50 (ng Ab/mL) ± S.E.M.” value (MDA-MB-468/hNotch) was 24 ± 4.0 ng Ab/mL.

B3: ch75-mc3377 (conjugate)
VH: QVKLLQSGAALVKPGASVKMSCKASGYAFTDYWVTWVKQSHGKSLEWIGEISPNSGGTNFNEKFKGKATLTVDKSTSTAYMELSRLTSEDSAIYYCTRGEIRYNWFAYWGQGTLVTVSS
VL: DIQMTQSPSSLSASVGDRVTITCKASQNVGNNIAWYQQKPGKAPKLLIYYASNRYTGVPSRFSGSGYGTDFTLTISSLQPEDFATYYCQRLYNSPFTFGGGTKVEIK
With B3 the “IC50 (ng Ab/mL) ± S.E.M.” value [1] was 560 ng Ab/mL.

B4: ch28-mc0131 (conjugate)
VH: EVQLVESGGGLVQPGRSLTLSCVASGFTFRDYGMTWIRQAPGKGLTWVAYISSGSNYIYYAEAVKGRFTISRDNAKNTLYLQMTSLRSEDTALYFCTRRGPFVLDAWGQGASVTVSS
VL: DIQMTQSPSFLSASVGDRVTINCKASQSINRYLHWFQQKLGEAPKLLIYNANGLQTGIPSRFSGSGSGTDFTLTISSLQSEDVATYFCLQHNTWPDTFGAGTKLELK
With B4 the “IC50 (ng Ab/mL) ± S.E.M.” value (U2OS/hNotch) was 3 ± 0.5 ng Ab/mL, the “IC50 (ng Ab/mL) ± S.E.M.” value (HCC2429 (lung cancer)) was 251 ± 77.5 ng Ab/mL and the “IC50 (ng Ab/mL) ± S.E.M.” value [1] was 35 ± 18.5 ng Ab/mL. The “IC50 (ng Ab/mL) ± S.E.M.” value (OVCAR3 (ovarian cancer)) was 6 ± 1.0 ng Ab/mL.

B5: ch28-me0131 (conjugate)
VH: EVQLVESGGGLVQPGRSLTLSCVASGFTFRDYGMTWIRQAPGKGLTWVAYISSGSNYIYYAEAVKGRFTISRDNAKNTLYLQMTSLRSEDTALYFCTRRGPFVLDAWGQGASVTVSS
VL: DIQMTQSPSFLSASVGDRVTINCKASQSINRYLHWFQQKLGEAPKLLIYNANGLQTGIPSRFSGSGSGTDFTLTISSLQSEDVATYFCLQHNTWPDTFGAGTKLELK
In the case of B5, the “IC50 (ng Ab/mL) ± S.E.M.” value (U2OS/hNotch) is reported as 3 ± 1.15 ng Ab/mL, the “IC50 (ng Ab/mL) ± S.E.M.” value (HCC2429 (lung cancer)) is reported as 30 ng Ab/mL and the “IC50 (ng Ab/mL) ± S.E.M.” value [1] is reported as 24 ± 14.0 ng Ab/mL. For the same molecule, the “IC50 (ng Ab/mL) ± S.E.M.” value (OVCAR3 (ovarian cancer)) was 8 ± 2.0 ng Ab/mL.

B6: ch28-mc8261 (conjugate)
VH: EVQLVESGGGLVQPGRSLTLSCVASGFTFRDYGMTWIRQAPGKGLTWVAYISSGSNYIYYAEAVKGRFTISRDNAKNTLYLQMTSLRSEDTALYFCTRRGPFVLDAWGQGASVTVSS
VL: DIQMTQSPSFLSASVGDRVTINCKASQSINRYLHWFQQKLGEAPKLLIYNANGLQTGIPSRFSGSGSGTDFTLTISSLQSEDVATYFCLQHNTWPDTFGAGTKLELK
B6 was tested, and the “IC50 (ng Ab/mL) ± S.E.M.” value [1] was 12147 ± 4806.4 ng Ab/mL.

B7: ch28-MalPeg6C2-8261 (conjugate)
VH: EVQLVESGGGLVQPGRSLTLSCVASGFTFRDYGMTWIRQAPGKGLTWVAYISSGSNYIYYAEAVKGRFTISRDNAKNTLYLQMTSLRSEDTALYFCTRRGPFVLDAWGQGASVTVSS
VL: DIQMTQSPSFLSASVGDRVTINCKASQSINRYLHWFQQKLGEAPKLLIYNANGLQTGIPSRFSGSGSGTDFTLTISSLQSEDVATYFCLQHNTWPDTFGAGTKLELK
With B7 the “IC50 (ng Ab/mL) ± S.E.M.” value [1] was 83 ± 35.5 ng Ab/mL.

B8: ch28-MalPeg6C2-0131 (conjugate)
VH: EVQLVESGGGLVQPGRSLTLSCVASGFTFRDYGMTWIRQAPGKGLTWVAYISSGSNYIYYAEAVKGRFTISRDNAKNTLYLQMTSLRSEDTALYFCTRRGPFVLDAWGQGASVTVSS
VL: DIQMTQSPSFLSASVGDRVTINCKASQSINRYLHWFQQKLGEAPKLLIYNANGLQTGIPSRFSGSGSGTDFTLTISSLQSEDVATYFCLQHNTWPDTFGAGTKLELK
With B8 the “IC50 (ng Ab/mL) ± S.E.M.” value (U2OS/hNotch) was 3 ± 0.85 ng Ab/mL, the “IC50 (ng Ab/mL) ± S.E.M.” value [1] was 10 ± 1.0 ng Ab/mL and the “IC50 (ng Ab/mL) ± S.E.M.” value (OVCAR3 (ovarian cancer)) was 10 ± 2.0 ng Ab/mL.

B9: ch28-mc3377 (conjugate)
VH: EVQLVESGGGLVQPGRSLTLSCVASGFTFRDYGMTWIRQAPGKGLTWVAYISSGSNYIYYAEAVKGRFTISRDNAKNTLYLQMTSLRSEDTALYFCTRRGPFVLDAWGQGASVTVSS
VL: DIQMTQSPSFLSASVGDRVTINCKASQSINRYLHWFQQKLGEAPKLLIYNANGLQTGIPSRFSGSGSGTDFTLTISSLQSEDVATYFCLQHNTWPDTFGAGTKLELK
For B9, the “IC50 (ng Ab/mL) ± S.E.M.” value (U2OS/hNotch) was 3 ± 0.5 ng Ab/mL, the “IC50 (ng Ab/mL) ± S.E.M.” value [1] was 27 ± 11.3 ng Ab/mL and the “IC50 (ng Ab/mL) ± S.E.M.” value (OVCAR3 (ovarian cancer)) was 14 ± 5.5 ng Ab/mL.
